One assay concerns the target T1, GTKA.
T1 construct: truncation series from GTKAAAA; also called Tn-peptide GTKA, immobilized (C-terminal truncation)
T1 peptide: Biotin-APLVPTQRERGT(GalNAc)KA
Briefly: ELISA; x axis = coating concentration of the peptide; 237Ab fixed at 10 µg/ml [left]. A general note: In an ELISA, binding on a coated surface is turned into a signal by an enzyme label.

A further assay addresses T2, GTK.
T2 construct: truncation series from GTKAAAA; also called Tn-peptide GTK, immobilized (C-terminal truncation)
T2 peptide: Biotin-APLVPTQRERGT(GalNAc)K
The assay is described as above.

In assay [1] the target is T3, Tn-OTS8 peptide ERGT(GalNAc)KPPLEELSGK-biotin, monomer (murine).
T3 construct: also called glycosylated OTS-8 peptide (biotinylated)
T3 peptide: ERGT(GalNAc)KPPLEELSGK(Biotin)
In words: flow cytometry of CAR-transduced mouse T cells with biotinylated peptide.

Assay [2] concerns the target T4, Tn-OTS8 peptide KAPLVPTQRERGT(GalNAc)KPPLEELSTSATSDHDH (murine, GalNAc (Tn) on the Thr of ...RERGT(GalNAc)KPP...).
T4 construct: Coated on ELISA plates at 2.5 or 5 µg/ml; also called OTS8p with Tn
T4 peptide: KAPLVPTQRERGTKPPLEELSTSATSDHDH
In words: ELISA, peptide coated at 2.5 or 5 µg/ml, biotinylated scFv, streptavidin-HRP.

Assay [3] has as its target T3, Tn-OTS8 peptide …. Briefly: flow cytometry of yeast-displayed clone with 1 or 10 nM Tn-OTS8 peptide. As for the experimental part:
FIG. 20. […] 10 clones were isolated from Tn-OTS8 peptide-sorted post-sort-4 and post-sort-5 populations. Each clone was stained with 1 or 10 nM Tn-OTS8 peptide and analyzed by flow cytometry. The mean fluorescence units (MFUs) of each clone is plotted on Y-axis. […] In addition, plasmid DNA was isolated from each clone to determine the kind of mutation(s), and frequency of mutation(s) (n). The sequence of wild-type (wt) and mutated residues is shown in black and maroon, respectively.
A general note: A flow cytometer gives signals particle by particle.

The target of assay [4] is T3, Tn-OTS8 peptide …. Briefly: Table 3, column 'Tn-linked antigen' recognized by the scFv.
The target of assay [5] is T3, Tn-OTS8 peptide …. In words: yeast display, flow cytometry titration with peptide.
The target of assay [6] is T3, Tn-OTS8 peptide …. Briefly: yeast display titration compared with a literature value.
Assay [7] has as its target T3, Tn-OTS8 peptide …. In words: yeast display dissociation compared with a literature value. How it is done:
(§1) FIG. 21. […] (B) To determine their off-rates, each mutant was stained with 30 nM biotinylated Tn-OTS8 peptide. After washing, the mutants were stained with 100 nM Tn-OTS8 peptide (not biotinylated). The decrease in binding to biotinylated Tn-OTS8p by each mutant was measured over a period of 4 hours, to calculate approximate half-lives (t_{1/2}) and off-rates (koff). […] See Brooks et al., Proc. Natl. Acad. Sci. (USA) 107(22):10056-10061 (2010).

Assay [8] has as its target T3, Tn-OTS8 peptide …. In words: yeast display, 30 nM biotinylated peptide chased with 100 nM unbiotinylated peptide over 4 hours. How it is done:
as §1

The target of assay [9] is T3, Tn-OTS8 peptide …. In words: flow cytometry titration of the yeast-displayed mutant with biotinylated OTS8p, 0.1 to 100 nM [A].
The target of assay [10] is T3, Tn-OTS8 peptide …. In words: dissociation on yeast: 30 nM biotinylated Tn-OTS8 peptide, wash, chase with 100 nM non-biotinylated peptide; % binding over 4 hours [B]. How it is done: as §1
Assay [11] addresses T3, Tn-OTS8 peptide …. Briefly: dissociation on yeast: 30 nM biotinylated Tn-OTS8 peptide, wash, chase with 100 nM non-biotinylated peptide; sheet adds: 30-fold slower than 237mAb:OTS8p [B]. How it is done: as §1
The target in another assay is T5, Tn-OTS8 peptide tetramer (murine, UniProt P22629 37-163 (Streptomyces avidinii entry), limits assumed, PE label; GalNAc (Tn) on Thr 4; C-terminal Lys-biotin).
T5 construct: How the tetramer was made is not spelled out; streptavidin-PE is the reagent named with it; also called Tn-OTS8p tetramer; tetramers of glycosylated OTS-8 peptide
T5 sequence (P22629 37-163 limits assumed): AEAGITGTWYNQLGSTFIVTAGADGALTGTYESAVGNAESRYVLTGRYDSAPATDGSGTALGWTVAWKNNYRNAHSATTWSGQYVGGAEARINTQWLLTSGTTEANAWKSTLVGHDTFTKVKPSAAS
Briefly: flow cytometry of yeast-displayed clone with 10 nM OTS8p tetramer [B].

Where no end group is shown, it is not given here. The star is where a group is joined. GalNAc = N-acetyl galactosamine (O-linked to Thr, Tn antigen); Biotin = O=C1N[C@H]2[C@H](CS[C@H]2CCCCC(=O)*)N1

B1: 237 monoclonal antibody (antibody, V domains shown)
VH: QVQLQQSGGGLVQPGGSMKIFCAASGFTFSDAWMDWVRQSPEKGLEWVAEIRNKANNHETYYAESVKGRFTITRDDSKSRMSLQMNSLRAEDTGIYYCSGGKVRNAYWGQGTTVTVSS
VL: DIQLTQSPLSLPVSLGDQASISCRSSQSLVHSNGNTYLHWYLQKPGQSPKLLIYKVSNRFSGVPDRFSGSGSGTDFTLKISSVEAEDLGVYFCSQSTHVPTFGGGTKLEIK
notes: Murine monoclonal IgG
Turning to B1, the binding result with GTKA and with GTK was “no binding (tested: 1000 nM peptide for coating)” in each case.

B2: 237-LGQ-CAR on transduced C57BL/6 mouse T cells (other)
scFv: DIQLTQSPLSLPVSLGDQASISCRSSQSLVHSNGNTYLHWYLQKPGQSPKLLIYKVSNRFSGVPDRFSGSGSGTDFTLKISSVEAEDLGVYFCSQSLGQPTFGGGTKLEIKGGGGSGGGGSGGGGSQVQLQQSGGGLVQPGGSMKIFCAASGFTFSDAWMDWVRQSPEKGLEWVAEIRNKANNHETYYAESVKGRFTITRDDSKSRMSLQMNSLRAEDTGIYYCSGGKVRNAYWGQGTTVTVSS
notes: also called CAR with dual specificity (LGQ); not shown: hinge, CD28 and CD3zeta parts of the CAR
B2: the binding result in assay [1] is “binds”.

B3: soluble 237 scFv monomer (biotinylated) (scFv)
scFv: DIQLTQSPLSLPVSLGDQASISCRSSQSLVHSNGNTYLHWYLQKPGQSPKLLIYKVSNRFSGVPDRFSGSGSGTDFTLKISSVEAEDLGVYFCSQSTHVPTFGGGTKLEIKGGGGSGGGGSGGGGSQVQLQQSGGGLVQPGGSMKIFCAASGFTFSDAWMDWVRQSPEKGLEWVAEIRNKANNHETYYAESVKGRFTITRDDSKSRMSLQMNSLRAEDTGIYYCSGGKVRNAYWGQGTTVTVSS
modifications: biotin on the C-terminal Avitag
notes: also called monomeric scFv; b237; not shown: N-terminal 6xHis tag; C-terminal Avitag
One may read the Kd as the free concentration of one partner at which half of the binding sites on the other are occupied at equilibrium, for simple one-to-one binding. Take B3: the Kd in assay [2] stood at 5 nM.

B4: -VWE (wt: STHV) (scFv)
scFv (VL-linker-VH): DIQLTQSPLSLPVSLGDQASISCRSSQSLVHSNGNTYLHWYLQKPGQSPKLLIYKVSNRFSGVPDRFSGSGSGTDFTLKISSVEAEDLGVYFCSQSVWEPTFGGGTKLEIKGGGGSGGGGSGGGGSQVQLQQSGGGLVQPGGSMKIFCAASGFTFSDAWMDWVRQSPEKGLEWVAEIRNKANNHETYYAESVKGRFTITRDDSKSRMSLQMNSLRAEDTGIYYCSGGKVRNAYWGQGTTVTVSS
notes: isolated after sort 5 with Tn-OTS8p; also called clone O5-8
Turning to B4, in [3], the binding result is reported as “binds”.

B5: yeast-displayed 237 scFv LGQ mutant (scFv)
scFv: DIQLTQSPLSLPVSLGDQASISCRSSQSLVHSNGNTYLHWYLQKPGQSPKLLIYKVSNRFSGVPDRFSGSGSGTDFTLKISSVEAEDLGVYFCSQSLGQPTFGGGTKLEIKGGGGSGGGGSGGGGSQVQLQQSGGGLVQPGGSMKIFCAASGFTFSDAWMDWVRQSPEKGLEWVAEIRNKANNHETYYAESVKGRFTITRDDSKSRMSLQMNSLRAEDTGIYYCSGGKVRNAYWGQGTTVTVSS
notes: not shown: yeast display carriers: N-terminal Aga2 and HA tag, C-terminal c-myc tag
In the case of B5, the binding result in assay [4] is listed as “binds”.

B6: yeast-displayed 237 scFv TNGK mutant (scFv, not shown: large carriers; small tags and cut ends)
scFv: DIQLTQSPLSLPVSLGDQASISCRSSQSLVHSNGNTYLHWYLQKPGQSPKLLIYKVSNRFSGVPDRFSGSGSGTDFTLKISSVEAEDLGVYFCSQTNGKPTFGGGTKLEIKGGGGSGGGGSGGGGSQVQLQQSGGGLVQPGGSMKIFCAASGFTFSDAWMDWVRQSPEKGLEWVAEIRNKANNHETYYAESVKGRFTITRDDSKSRMSLQMNSLRAEDTGIYYCSGGKVRNAYWGQGTTVTVSS
B6: in assay [4], the binding result is recorded as “binds”.

B7: --WG (wt: STHV) (scFv)
scFv (VL-linker-VH): DIQLTQSPLSLPVSLGDQASISCRSSQSLVHSNGNTYLHWYLQKPGQSPKLLIYKVSNRFSGVPDRFSGSGSGTDFTLKISSVEAEDLGVYFCSQSTWGPTFGGGTKLEIKGGGGSGGGGSGGGGSQVQLQQSGGGLVQPGGSMKIFCAASGFTFSDAWMDWVRQSPEKGLEWVAEIRNKANNHETYYAESVKGRFTITRDDSKSRMSLQMNSLRAEDTGIYYCSGGKVRNAYWGQGTTVTVSS
notes: isolated after sort 4 with Tn-OTS8p; also called clone O4-3
As to B7, in [3], the binding result is “binds”.

B8: T-WA (wt: STHV) (scFv)
scFv (VL-linker-VH): DIQLTQSPLSLPVSLGDQASISCRSSQSLVHSNGNTYLHWYLQKPGQSPKLLIYKVSNRFSGVPDRFSGSGSGTDFTLKISSVEAEDLGVYFCSQTTWAPTFGGGTKLEIKGGGGSGGGGSGGGGSQVQLQQSGGGLVQPGGSMKIFCAASGFTFSDAWMDWVRQSPEKGLEWVAEIRNKANNHETYYAESVKGRFTITRDDSKSRMSLQMNSLRAEDTGIYYCSGGKVRNAYWGQGTTVTVSS
notes: isolated after sort 4 with Tn-OTS8p; also called clones O4-1, O4-2, O4-9
Regarding B8, the binding result in assay [3] is recorded as “binds”.

B9: yeast-displayed 237 scFv WE mutant (scFv)
scFv: DIQLTQSPLSLPVSLGDQASISCRSSQSLVHSNGNTYLHWYLQKPGQSPKLLIYKVSNRFSGVPDRFSGSGSGTDFTLKISSVEAEDLGVYFCSQSTWEPTFGGGTKLEIKGGGGSGGGGSGGGGSQVQLQQSGGGLVQPGGSMKIFCAASGFTFSDAWMDWVRQSPEKGLEWVAEIRNKANNHETYYAESVKGRFTITRDDSKSRMSLQMNSLRAEDTGIYYCSGGKVRNAYWGQGTTVTVSS
notes: as for B5
One may read the koff as the first-order rate constant of dissociation. Lower therefore signals slow dissociation. Regarding B9, the equilibrium dissociation constant (Kd) is roughly 5 nM in [5] and 4.3 nM in [9]. Besides, in assay [6], the “fold higher affinity than the 237 IgG Fab domain (literature SPR)” value was roughly 30 fold. The “fold slower off-rate than the 237 monoclonal antibody Fab with OTS8 peptide (literature)” value in [7] was 30 fold. For the same molecule, the “half-life (t1/2)” value in assay [8] is roughly 30 min. This molecule also registered a t1/2 in assay [10] of 27 min. In addition, the off-rate (koff) in assay [11] turned out to be 0.00042 s⁻¹.

B10: MLV (wt CDRL2: KVS) (scFv)
scFv (VL-linker-VH): DIQLTQSPLSLPVSLGDQASISCRSSQSLVHSNGNTYLHWYLQKPGQSPKLLIYMLVNRFSGVPDRFSGSGSGTDFTLKISSVEAEDLGVYFCSQSTHVPTFGGGTKLEIKGGGGSGGGGSGGGGSQVQLQQSGGGLVQPGGSMKIFCAASGFTFSDAWMDWVRQSPEKGLEWVAEIRNKANNHETYYAESVKGRFTITRDDSKSRMSLQMNSLRAEDTGIYYCSGGKVRNAYWGQGTTVTVSS
As to B10, the binding result in the assay with Tn-OTS8 peptide tetramer is “no binding (tested: 10 nM)”.

B11: 237-TNGK-CAR on transduced C57BL/6 mouse T cells (other)
scFv: DIQLTQSPLSLPVSLGDQASISCRSSQSLVHSNGNTYLHWYLQKPGQSPKLLIYKVSNRFSGVPDRFSGSGSGTDFTLKISSVEAEDLGVYFCSQTNGKPTFGGGTKLEIKGGGGSGGGGSGGGGSQVQLQQSGGGLVQPGGSMKIFCAASGFTFSDAWMDWVRQSPEKGLEWVAEIRNKANNHETYYAESVKGRFTITRDDSKSRMSLQMNSLRAEDTGIYYCSGGKVRNAYWGQGTTVTVSS
notes: also called CAR with dual specificity (TNGK); not shown: hinge, CD28 and CD3zeta parts of the CAR
On to B11, for which the binding result in [1] is “binds”.

For the origin of these results see patent US20220047631A1 (UNIVERSITY OF CHICAGO, published 2022).
